Read-outs that look alike come from different tables or passages of the source. One block for each binder: values may come before it.
Legend:
Assay in all cases: two-hybrid library CCmax;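 also: natural log of median RNA to DNA barcode read ratio; higher means stronger binding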
[1] = biological target: T1, 4H3631-AA; details: mean of both orientations
T1 chain: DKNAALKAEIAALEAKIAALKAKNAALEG

[2] = biological target: T2, 4H717-AA; details: mean of both orientations
T2 chain: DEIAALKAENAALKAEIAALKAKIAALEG

[3] = biological target: T3, 4H697-AA; details: mean of both orientations
T3 chain: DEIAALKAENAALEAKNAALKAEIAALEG

[4] = biological target: T4, 4H3718-AA
T4 chain: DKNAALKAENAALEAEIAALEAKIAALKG

[5] = biological target: T5, 4H3606-AA
T5 chain: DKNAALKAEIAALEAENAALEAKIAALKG

[6] = biological target: T6, 4H2611-AA; details: mean of both orientations
T6 chain: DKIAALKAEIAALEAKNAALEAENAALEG

[7] = biological target: T7, 4H384-AA; details: mean of both orientations
T7 chain: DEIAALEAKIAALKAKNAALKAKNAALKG

[8] = biological target: T8, 4H982-AA; details: mean of both orientations
T8 chain: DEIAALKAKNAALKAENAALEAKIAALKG

[9] = biological target: T9, 4H797-AA; details: mean of both orientations
T9 chain: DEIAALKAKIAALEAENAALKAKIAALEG

[10] = biological target: T10, 4H_BCR; details: mean of both orientations
T10 chain: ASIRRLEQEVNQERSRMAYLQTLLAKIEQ

[11] = biological target: T11, 4H249-AA; details: mean of both orientations
T11 chain: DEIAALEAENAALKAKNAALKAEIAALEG

[12] = biological target: 4H_GCN4
Chain of 4H_GCN4 (chain, as listed by the source): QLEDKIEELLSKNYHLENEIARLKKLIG

[13] = biological target: T12, 4H2774-AA; details: mean of both orientations
T12 chain: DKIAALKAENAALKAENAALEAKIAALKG

[14] = biological target: T13, 4H_APH; details: mean of both orientations
T13 chain: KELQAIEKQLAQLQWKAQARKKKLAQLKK

[15] = biological target: T14, 4H570-AA
T14 chain: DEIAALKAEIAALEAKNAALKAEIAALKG

[16] = biological target: T15, 4H3120-AA; details: mean of both orientations
T15 chain: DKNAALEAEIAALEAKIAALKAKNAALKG

[17] = biological target: T16, 4H2438-AA; details: mean of both orientations
T16 chain: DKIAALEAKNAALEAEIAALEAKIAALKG

[18] = biological target: T17, 4H2865-AA
T17 chain: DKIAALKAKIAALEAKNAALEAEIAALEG

[19] = biological target: T18, 4H458-AA; details: mean of both orientations
T18 chain: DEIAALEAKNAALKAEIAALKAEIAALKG

[20] = biological target: T19, 4H2473-AA; details: mean of both orientations
T19 chain: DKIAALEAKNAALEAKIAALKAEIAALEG

[21] = biological target: T20, 4H710-AA; details: mean of both orientations
T20 chain: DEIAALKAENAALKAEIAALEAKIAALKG

[22] = biological target: T21, 4H3410-AA; details: mean of both orientations
T21 chain: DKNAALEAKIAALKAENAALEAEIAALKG

[23] = biological target: T22, 4H930-AA; details: mean of both orientations
T22 chain: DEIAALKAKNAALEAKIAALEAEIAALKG

[24] = biological target: T23, 4H629-AA; details: mean of both orientations
T23 chain: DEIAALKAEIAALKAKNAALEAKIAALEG

[25] = biological target: T24, 4H3753-AA; details: mean of both orientations
T24 chain: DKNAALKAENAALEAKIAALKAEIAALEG

[26] = biological target: T25, 4H2253-AA; details: mean of both orientations
T25 chain: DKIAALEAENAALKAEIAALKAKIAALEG

[27] = biological target: T26, 4H3016-AA; details: mean of both orientations
T26 chain: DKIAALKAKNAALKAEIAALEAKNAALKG

[28] = biological target: T27, 4H2274-AA; details: mean of both orientations
T27 chain: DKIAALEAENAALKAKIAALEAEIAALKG

[29] = biological target: T28, 4H2389-AA; details: mean of both orientations
T28 chain: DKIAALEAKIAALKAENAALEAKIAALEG

[30] = biological target: T29, 4H3381-AA; details: mean of both orientations
T29 chain: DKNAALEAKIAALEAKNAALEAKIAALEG

[31] = biological target: T30, 4H310-AA; details: mean of both orientations
T30 chain: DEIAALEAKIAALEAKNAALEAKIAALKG

[32] = biological target: T31, 4H94-AA; details: mean of both orientations
T31 chain: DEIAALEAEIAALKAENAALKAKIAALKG

[33] = biological target: T32, 4H850-AA; details: mean of both orientations
T32 chain: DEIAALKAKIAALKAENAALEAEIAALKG

[34] = biological target: T33, 4H745-AA; details: mean of both orientations
T33 chain: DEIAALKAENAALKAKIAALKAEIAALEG

[35] = biological target: T34, 4H2330-AA; details: mean of both orientations
T34 chain: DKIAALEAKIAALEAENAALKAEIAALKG

[36] = biological target: T35, 4H2698-AA
T35 chain: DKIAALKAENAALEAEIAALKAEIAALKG

[37] = biological target: T36, 4H891-AA; details: mean of both orientations
T36 chain: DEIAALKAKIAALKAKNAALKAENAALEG

[38] = biological target: T37, 4H3395-AA; details: mean of both orientations
T37 chain: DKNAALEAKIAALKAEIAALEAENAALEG

[39] = biological target: T38, 4H3590-AA; details: mean of both orientations
T38 chain: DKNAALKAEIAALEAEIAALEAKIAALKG

[40] = biological target: T39, 4H3130-AA; details: mean of both orientations
T39 chain: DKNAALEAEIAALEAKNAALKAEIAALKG

[41] = biological target: T40, 4H909-AA; details: mean of both orientations
T40 chain: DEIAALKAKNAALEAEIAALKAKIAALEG

[42] = biological target: T41, 4H485-AA; details: mean of both orientations
T41 chain: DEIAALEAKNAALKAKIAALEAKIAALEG

[43] = biological target: T42, 4H3165-AA; details: mean of both orientations
T42 chain: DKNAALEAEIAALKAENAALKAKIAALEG

interaction score [1]: -1.4
interaction score [10]: -1.64
interaction score [2]: -1.5
interaction score [12]: -1.67
interaction score [3]: -1.39
interaction score ([4]; mean of both orientations): 0.196
interaction score ([5]; mean of both orientations): 2.07
interaction score [6]: -1.66
interaction score [7]: -1.67
interaction score [14]: -1.86
interaction score [8]: -0.483
B4: 4H1401-AA (peptide)
chain: DENAALEAKIAALKAKNAALKAEIAALEG

interaction score [16]: -1.42
interaction score [17]: 0.734
interaction score [18]: -0.997
interaction score [19]: -0.711
interaction score [20]: -1.21
interaction score [21]: 0.905
interaction score [22]: -0.741
interaction score [23]: -1.29
interaction score [24]: -1.29
interaction score [25]: -1.25
interaction score [26]: -1.44
interaction score [27]: 1.66
interaction score [28]: -1.17
interaction score [29]: -1.07
interaction score [30]: -1.57
interaction score [31]: -1.66
interaction score [32]: -1.72
interaction score [33]: -1.11
interaction score [7]: -1.36
interaction score [34]: -1.45
interaction score [35]: -2.02
interaction score ([15]; mean of both orientations): -0.493
interaction score [36]: -0.616
interaction score [37]: -0.295
interaction score [38]: -1.24
interaction score [39]: -0.733
interaction score [40]: 0.164
interaction score [41]: -1.12
interaction score [42]: -0.423
interaction score [43]: -1.21
interaction score [9]: -1.36
B5: 4H171-AA (peptide)
chain: DEIAALEAENAALEAKIAALKAENAALEG

interaction score [1]: 0.849
interaction score [2]: -1.1
interaction score [3]: -1.68
interaction score ([4]; mean of both orientations): 0.217
interaction score [5]: -0.981
interaction score [6]: -1.92
interaction score [7]: -0.314
interaction score [8]: -0.675
B6: 4H1153-AA (peptide)
chain: DENAALEAENAALEAEIAALEAEIAALEG

More lines, now with the values behind:

B1: 4H1845-AA (peptide)
chain: DENAALKAKIAALEAKNAALEAKIAALEG
interaction score [1]: -1.57
interaction score [2]: -1.01
interaction score [3]: -1.65
interaction score ([4]; mean of both orientations): -1.65
interaction score ([5]; mean of both orientations): -0.353
interaction score [6]: -1.56
interaction score [7]: -1.55
interaction score [8]: -1.6
interaction score [9]: -0.965

B2: 4H1257-AA (peptide)
chain: DENAALEAENAALKAKIAALKAEIAALEG
interaction score [10]: -2.19
interaction score [11]: -1.46
interaction score [2]: 0.282
interaction score [12]: -2.56
interaction score [13]: 2.09
interaction score [14]: -1.94
interaction score [9]: -1.57

B3: 4H3606-AA (peptide)
chain: DKNAALKAEIAALEAENAALEAKIAALKG
interaction score [1]: -0.831
interaction score [10]: -0.919
interaction score [2]: -1.65
interaction score [12]: -0.288
interaction score [3]: -0.116
interaction score [4]: -1.15
interaction score [5]: -0.0341
interaction score [7]: 1.18
interaction score [14]: -1.27
interaction score [15]: -2.43
interaction score [8]: 0.00779

Reference: paper PMC10397247
